“And” between values parts separate entries of the source, which are not always exact repeats. Equal values may be shown once.

In data set [1] the target is M1-linked di-ubiquitin (UniProt P0CG48 1-76; P0CG48 1-76). Description: SEC.
Data set [2] deals with the molecule itself. Description: SEC-MALS.

B1: NEMO UBAN (192–350) (domain or fragment, human, UniProt Q9Y6K9 192-350, looked up)
chain: QQQHSVQVDQLRMQGQSVEAALRMERQAASEEKRKLAQLQVAYHQLFQEYDNHIKSSVVGSERKRGMQLEDLKQQLQQAEEALVAKQEVIDKLKEEAEQHKIVMETVPVLKAQADIYKADFQAERQAREKLAEKKELLQEQLEQLQREYSKLKASCQES
In the case of B1, the binding result in data set [1] is “binds”.

B2: NEMO (150–350) (domain or fragment, human, UniProt Q9Y6K9 150-350, looked up)
chain: LGELQESQSRLEAATKECQALEGRARAASEQARQLESEREALQQQHSVQVDQLRMQGQSVEAALRMERQAASEEKRKLAQLQVAYHQLFQEYDNHIKSSVVGSERKRGMQLEDLKQQLQQAEEALVAKQEVIDKLKEEAEQHKIVMETVPVLKAQADIYKADFQAERQAREKLAEKKELLQEQLEQLQREYSKLKASCQES
In the case of B2, in data set [2], the “stoichiometry N” value was 2 and 4. Moreover, the binding result in data set [1] is “binds”.

B3: NEMO UBAN-ZF (246–419) (domain or fragment, human, UniProt Q9Y6K9 246-419, looked up)
chain: KSSVVGSERKRGMQLEDLKQQLQQAEEALVAKQEVIDKLKEEAEQHKIVMETVPVLKAQADIYKADFQAERQAREKLAEKKELLQEQLEQLQREYSKLKASCQESARIEDMRKRHVEVSQAPLPPAPAYLSSPLALPSQRRSPPEEPPDFCCPKCQYQAPDMDTLQIHVMECIE
On to B3, for which the binding result in data set [1] is on record as “binds”.

B4: NEMO (112–350) (domain or fragment, human, UniProt Q9Y6K9 112-350, looked up)
chain: LDLKRQKEQALREVEHLKRCQQQMAEDKASVKAQVTSLLGELQESQSRLEAATKECQALEGRARAASEQARQLESEREALQQQHSVQVDQLRMQGQSVEAALRMERQAASEEKRKLAQLQVAYHQLFQEYDNHIKSSVVGSERKRGMQLEDLKQQLQQAEEALVAKQEVIDKLKEEAEQHKIVMETVPVLKAQADIYKADFQAERQAREKLAEKKELLQEQLEQLQREYSKLKASCQES
For B4, in data set [2], the “stoichiometry N” value turned out to be 2.
